Patent US11266716B2, “Use of dermcidin in sterile inflammatory conditions” (THE FEINSTEIN INSTITUTES FOR MEDICAL RESEARCH, priority 2015, dated 2022)

Assays:
[1] = test system: various types of cells; settings: cited from earlier work
[2] = test system: Murine macrophage-like RAW 264.7; assay: LPS- or CIRP-induced NO release by murine macrophages (Griess reaction); assay type: cell-based; settings: 16 h
Method: FIG. 2. Dermcidin dose-dependently attenuated LPS- and CIRP-induced NO release by murine macrophages. Murine macrophages were stimulated with LPS or CIRP alone or in the presence of recombinant dermcidin (DCD) for 16 hours, and extracellular levels of nitric oxide (NO) were determined by the Griess Reagent. *, P<0.05 versus “−control”; #, P<0.05 versus “+LPS”, or “+CIRP” alone.
Cell culture: Murine macrophage-like RAW 264.7 were obtained from the American Type Culture Collection (ATCC, Rockville, Md.), and were cultured in DMEM supplemented with 1% penicillin/streptomycin and 10% FBS. Human blood was purchased from the Long Island Blood Bank (Melville, N.Y.), and human peripheral blood mononuclear cells (HuPBMCs) were isolated by density gradient centrifugation through Ficoll (Ficoll-Paque PLUS, Pharmacia, Piscataway, N.J.) as previously described (20-22). […] Subsequently, the cell-conditioned culture media were analyzed respectively for levels of nitric oxide, and other cytokines by the Griess Reaction and Cytokine Antibodies Arrays as previously described (19, 23).
Nitric oxide (NO) assay: The levels of NO in the culture medium were determined indirectly by measuring the NO^2− production with a colorimetric assay based on the Griess reaction (21, 24). NO^2− concentrations were determined with reference to a standard curve generated with sodium nitrite at various dilutions.

[3] = test system: human peripheral blood mononuclear cells (HuPBMCs); assay: LPS- or HMGB1-induced cytokine/chemokine release by human monocytes (Cytokine Antibody Array); assay type: cell-based
Method: FIG. 3A-3B. Dermcidin modulated LPS- and HMGB1-induced chemokine release by human monocytes. Human peripheral mononuclear cells (huPBMCs) were stimulated with LPS (0.8 μg/ml) or HMGB1 (4.0 μg/ml) alone, or in the presence of DCD (1.0 μg/ml) for 16 hours, and extracellular levels of cytokines and chemokines were determined by Cytokine Antibody Arrays (Panel A, B). A, Representative cytokine antibody arrays. The name of the cytokines and positive controls (“Pos”, or “+Ctrl”) were labeled in the table below. B, Relative cytokine levels. The relative cytokine levels were estimated by measuring the intensity of corresponding signal, and expressed as mean±SEM [% of positive controls (“+Ctrl”) of respective arrays] of two independent experiments. *, P<0.05 versus “untreated”; #, P<0.05 versus “+LPS” or “+HMGB1” alone.
Cell culture: Murine macrophage-like RAW 264.7 were obtained from the American Type Culture Collection (ATCC, Rockville, Md.), and were cultured in DMEM supplemented with 1% penicillin/streptomycin and 10% FBS. Human blood was purchased from the Long Island Blood Bank (Melville, N.Y.), and human peripheral blood mononuclear cells (HuPBMCs) were isolated by density gradient centrifugation through Ficoll (Ficoll-Paque PLUS, Pharmacia, Piscataway, N.J.) as previously described (20-22). Adherent macrophages or HuPBMCs were gently washed with, and cultured in, DMEM before stimulation with LPS (0.4 μg/ml), CIRP (2.0 μg/ml), or HMGB1 (1.0 μg/ml) in the absence or presence of recombinant dermcidin for 16 h. Subsequently, the cell-conditioned culture media were analyzed respectively for levels of nitric oxide, and other cytokines by the Griess Reaction and Cytokine Antibodies Arrays as previously described (19, 23).
Cytokine antibody array: Human Cytokine Antibody Array C3 (Cat. No. AAH-CYT-3-4, RayBiotech Inc., Norcross, Ga., USA), which respectively detect 42 cytokines on one membrane, were used to determine cytokine levels in human monocyte-conditioned culture medium as previously described (21, 24). Briefly, the membranes were sequentially incubated with equal volumes of cell culture medium (200 al), primary biotin-conjugated antibodies, and horseradish peroxidase-conjugated streptavidin. After exposing to X-ray film, the relative signal intensity was determined using the Scion Image software.

[4] = test system: Male C57BL/6 mice; assay: Hepatic ischemia/reperfusion (I/R) injury in mice; assay type: in vivo
Method: FIG. 4A-4B. Intravenous administration of dermcidin conferred protection against hepatic ischemia/reperfusion (I/R) injury. Male C57BL/6 mice (20-25 g) were subjected to hepatic ischemia/reperfusion by temporal clamping the hepatic artery and portal vein for 60 minutes, which typically produced ischemia in 70% of the liver. At the beginning of the reperfusion, 0.2 ml saline or recombinant dermcidin solution (“DCD”, 5.0 mg/kg BW) was injected via the internal jugular vein. At 24 h after the onset of ischemia, animals were euthanized to harvest blood to measure serum levels of hepatic injury markers such as alanine aminotransferase (ALT) (4A) and aspartate aminotransferase (AST) (4B) using commercial kits.
FIG. 5. DCD monomer protects against hepatic ischemic/reperfusion injury. Representative liver histology at 24 h post the onset of reperfusion. Note a normal liver parenchyma architecture in the “Sham” control, but hepatic necrosis in the “I/R”. […] Liver injury was also assessed histologically using the Suzuki liver injury scores, and expressed as means±S.E. of 3-6 animals per group. *P<0.05 vs. sham; #P<0.05 vs. “I/R” group.
FIG. 6A-6B. DCD protects against hepatic ischemic/reperfusion-induced lung injury. 6A). Histopathological characteristics of lung injury after hepatic I/R. Representative H&E histological images of lung sections at 24 h post the onset of reperfusion. Note a normal lung architecture in the “Sham” control, and extensive lung injury and neutrophil infiltration in the “I/R” group. […] 6B). Histological Scores. Lung injury was assessed histologically using American Thoracic Society Documents' lung injury scores, and expressed as means±S.E. of 3-6 animals per group. *P<0.05 vs. sham; #P<0.05 vs. “I/R” group.
In further experiments, intravenous administration of dermcidin conferred protection against hepatic ischemia/reperfusion (I/R) injury. Male C57BL/6 mice (20-25 g) were subjected to hepatic ischemia/reperfusion by temporal clamping the hepatic artery and portal vein for 60 minutes, which typically produced ischemia in 70% of the liver. […]
A representative liver histology at 24 h post the onset of reperfusion is shown, note a normal liver parenchyma architecture in the “Sham” control, and hepatic necrosis in the “I/R”. […] Liver injury was also assessed histologically using the Suzuki liver injury scores, and expressed as means±S.E. of 3-6 animals per group. *P<0.05 vs. sham; #P<0.05 vs. “I/R” group.
DCD also protects against hepatic ischemic/reperfusion-induced lung injury. […] Lung injury was assessed histologically using American Thoracic Society Documents' lung injury scores, and expressed as means±S.E. of 3-6 animals per group. *P<0.05 vs. sham; #P<0.05 vs. “I/R” group.

[5] = human monocyte cultures, HMGB1, DCD 1.0 μg/ml, 16 h
[6] = human monocyte cultures, LPS, DCD 1.0 μg/ml, 16 h
[7] = 5.0 mg/kg BW via internal jugular vein at beginning of reperfusion, 24 h after onset of ischemia
[8] = 24 h post the onset of reperfusion

With “N-terminal peptide (residue 20-62): N-terminal proteolytic peptide of dermcidin, residue 20-62 (YDPEAASAPGSGNPCHEASAAQKENAGEDPGLARQAPKPRKQR; UniProt P81605 20-62, looked up, fragment)” as the molecule, how does the “protection of cells against oxidative or hypoxic stresses” value [1] read?
Its value is “protect various types of cells against oxidative or hypoxic stresses”.

B1: dermcidin: Recombinant human dermcidin, mature form residues 20-110 without signal peptide, N-terminal histidine tag, expressed in E. coli (protein, listed as Homo sapiens)
chain: YDPEAASAPGSGNPCHEASAAQKENAGEDPGLARQAPKPRKQRSSLLEKGLDGAKKAVGGLGKLGKDAVEDLESVGKGAVHDVKDVLDSVL
Which results are given for B1?
CIRP-induced NO release ([2]; macrophages stimulated with CIRP): dose-dependently and significantly attenuated; LPS-induced NO release ([2]; macrophages stimulated with LPS): dose-dependently and significantly attenuated; immune modulating properties on dimer formation ([3]; dimers formed in the absence of reducing agents, in vitro, data not shown): remained unaltered; TNF secretion ([3]; human monocyte cultures): slightly stimulated; HMGB1-induced release of GRO-α [3, 5]: effectively inhibited; HMGB1-induced release of MCP-3 [3, 5]: effectively inhibited; LPS-induced release of GRO-α [3, 6]: effectively inhibited; LPS-induced release of MCP-3 [3, 6]: effectively inhibited; serum alanine aminotransferase (ALT), hepatic injury marker [4, 7]: significant protection; serum aspartate aminotransferase (AST), hepatic injury marker [4, 7]: significant protection; lung histology (H&E) after hepatic I/R [4, 8]: well-preserved tissue structure

B2: DCD monomer: Recombinant dermcidin 12-14 kDa monomer, seen in the presence of reducing agent DTT (protein, UniProt P81605 20-110, looked up)
Dermcidin: B1 chain
With B2 as the molecule, how does the “liver histology after hepatic I/R” value [4, 8] read?
The value was “well-preserved tissue structure”.
